Biological target: NBS1 (UniProt O60934)
Assay: anti-Flag co-IP
Conditions: reference: wild-type Syk-Flag; sites T504

## Syk (from UniProt P43405) Syk T504A
  binding against the reference: lost
